The target of the test is VEGF (UniProt P15692). The test is described as follows: native MS.

As to “VEGF (from UniProt P15692-4 1-191) (ligand)”, the stoichiometry N (as a rule, a count of units in the complex or per binding partner) was 2.

(Values after paper PMC4899112.)
